Source: PMC4366279 (PLoS ONE, 2015)
Changes are numbered by the printed parent chain.

Key:
[1] = biological target: T1, T. brucei RNA Editing Ligase 1 (TbREL1), full length wild type (Trypanosoma brucei, UniProt P86926 45-469, [35S]-methionine labelled); experiment: cell-based or functional assay
T1 sequence: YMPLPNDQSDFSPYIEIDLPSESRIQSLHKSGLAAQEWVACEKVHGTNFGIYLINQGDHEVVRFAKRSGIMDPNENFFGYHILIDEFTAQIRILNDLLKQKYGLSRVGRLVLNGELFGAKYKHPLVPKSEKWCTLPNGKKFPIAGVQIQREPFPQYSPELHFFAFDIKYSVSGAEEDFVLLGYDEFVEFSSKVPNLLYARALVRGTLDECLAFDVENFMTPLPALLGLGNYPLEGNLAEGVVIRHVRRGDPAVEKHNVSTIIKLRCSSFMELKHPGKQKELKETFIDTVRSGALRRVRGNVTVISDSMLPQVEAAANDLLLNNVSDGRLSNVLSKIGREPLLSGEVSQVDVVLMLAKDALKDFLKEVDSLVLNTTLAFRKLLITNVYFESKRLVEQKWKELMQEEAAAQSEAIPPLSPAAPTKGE

TbREL1 E444A = biological target: T2, TbREL1 E444A (Trypanosoma brucei, UniProt P86926 45-469, E444A, [35S]-methionine labelled); experiment: pull-down; His6-TbREL1 TNT mixture mixed with an equal volume of untagged KREPA2 TNT mixture, captured on magnetic His-tag isolation beads (Dynabeads); binding buffer 50 mM NaPO4 pH 8.0, 300 mM NaCl, 0.01% Tween 20; 20-30 min at 4°C; three washes; [35S]-methionine-labelled proteins on 10% SDS-PAGE, PhosphorImager; KREPA2-only control for background; settings: partners not purified
T2 construct: Site-directed mutagenesis of TbREL1-pET30a; source: in vitro translated (TNT reticulocyte lysate coupled transcription and translation system, Promega); not shown: His6, N-terminal, kept
T2 sequence: T1 sequence with E400A

TbREL1 K441A = biological target: T3, TbREL1 K441A (Trypanosoma brucei, UniProt P86926 45-469, K441A, [35S]-methionine labelled); experiment: as above; settings: partners not purified
T3 construct: Site-directed mutagenesis of TbREL1-pET30a; source: in vitro translated (TNT reticulocyte lysate coupled transcription and translation system, Promega); not shown: His6, N-terminal, kept
T3 sequence: T1 sequence with K397A

TbREL1 F206A = biological target: T4, TbREL1 F206A (Trypanosoma brucei, UniProt P86926 45-469, F206A, [35S]-methionine labelled); experiment: as above; settings: partners not purified
T4 construct: Site-directed mutagenesis of TbREL1-pET30a; source: in vitro translated (TNT reticulocyte lysate coupled transcription and translation system, Promega); not shown: His6, N-terminal, kept
T4 sequence: T1 sequence with F162A

B1: KREPA2 (natural protein)
chain: MYRRFFRSAAVKHLGTTSAQCLMRATKYPCGAMCRNASSCHPQTLGYQQRFQSTTDKKFHCSVCKKPFRLEMAAKLHLQQAHGGDGSVEAGPGPGVEASSVNVVSTPVPSPISPVERTFVDEEERRPRRMRPTPKPLHQPDRDIPAAAMEEMLGVWDKIGLNRLEGNFVHSTMVMKVFAAPPDVSEIPLYEHVAPEGENPFDSLDHMTTGTVDATYVGHDAFAEVDLVDPFVAAPDQTLNPFRAGKVRNPFTRISPTQREVVKPLQPPQPKEEPLKAPVTPFGQLPMFGQTREPSASFAAAAVSVQAAANPNEVSSPFAAAVSSSPFVGQVASPFAPAQDVAGSPFEASPCAASSPFVTAGGQETSPFAAPSTPASFGQGSLFPPMGTGAPGFTAITETEQRQQELEHGCPTCGKKFSTFEGAAMHSKSKHGIVLESKKVKDRLNRKGVPDLPAYVPSPVDLSSTSPFGTRSAIGASWAETELIPHAQCVSNITIVGRVLDVSQASENVSHVTVFVEGERSGEEETLTLCCFGEVSQKIRGTLKRNATIFASGTLRLHPVYEASNNKYYVSPVVHVSMPTGTLAVIT
modifications: [35S]-methionine labelled
notes: KREPA2 of T. brucei, the KREPA2 open reading frame, expressed untagged (63 kDa); source: in vitro translated (TNT reticulocyte lysate coupled transcription and translation system, Promega)
adenylylation activity of TbREL1, enhancement in the presence of equimolar KREPA2 [1]: 6.7 fold
ligation activity of TbREL1 (pre-cleaved RNA ligation assay), enhancement in the presence of equimolar KREPA2 [1]: 3.6 fold
relative pulldown (% of the KREPA2 pulled down by TbREL1 WT) (TbREL1 E444A): < 50%
relative pulldown (% of the KREPA2 pulled down by TbREL1 WT) (TbREL1 K441A): < 50%
relative pulldown (% of the KREPA2 pulled down by TbREL1 WT) (TbREL1 F206A): < 50%
